{
  "source": "paper doi:10.1101/2024.07.24.604550",
  "about": "(bioRxiv, 2024)",
  "binders": {"B1": {"name": "MBP-ECT1 (natural protein, Arabidopsis, UniProt Q3MK94 1-428, looked up)", "chain": "MAGAASSDRLVTSFPLLDTADLFQDLSLGSDANEVPMNFTKGSFQHPYGHAPYGASSHGSERRPNMNAGNLLNGGDSIGSYPWGYIPANYPSGGYPDPRFGYDRNSNHSSFSHLMNPHSSQEVPSFDQLGYNDHLYSNHGLYGLYGNVIDSGHAYGTFGYDSWKLGRGWYPVDGYRKTRSFNHGRGYSDEKADRLNELCRGPRSSDFKNPQVLNSSMLDAMKQDVSAVDLQRYNGENFPESFVKAKFFVIKSYSEDDVHNCIKYGAWSSTPTGNKKLNAAYYEAKENSQECPVYLLFSVNASGQFVGLAEMVGPVDFNKTMEYWQQDKWIGCFPVKWHIIKDIPNSLLRHITLANNENKPVTNSRDTQEVNLEHGTKIIKIFKEYMSKTCILDDYKFYETRQKIIRDKKIKQKKQALDGASGETINLS"}, "B2": {"name": "UGUm6AA RNA (ssRNA)", "RNA": "UCUUUUGUAAGACUUGUACUCUUUA", "modifications": "m6A at position 9"}, "B3": {"name": "UGUAA RNA (unmodified) (ssRNA)", "RNA": "UCUUUUGUAAGACUUGUACUCUUUA"}},
  "key": {"GST-ECT1 [1]": {"molecular_target": "T1, GST-ECT1 (Arabidopsis, UniProt Q3MK94 1-428)", "T1 sequence (looked up)": "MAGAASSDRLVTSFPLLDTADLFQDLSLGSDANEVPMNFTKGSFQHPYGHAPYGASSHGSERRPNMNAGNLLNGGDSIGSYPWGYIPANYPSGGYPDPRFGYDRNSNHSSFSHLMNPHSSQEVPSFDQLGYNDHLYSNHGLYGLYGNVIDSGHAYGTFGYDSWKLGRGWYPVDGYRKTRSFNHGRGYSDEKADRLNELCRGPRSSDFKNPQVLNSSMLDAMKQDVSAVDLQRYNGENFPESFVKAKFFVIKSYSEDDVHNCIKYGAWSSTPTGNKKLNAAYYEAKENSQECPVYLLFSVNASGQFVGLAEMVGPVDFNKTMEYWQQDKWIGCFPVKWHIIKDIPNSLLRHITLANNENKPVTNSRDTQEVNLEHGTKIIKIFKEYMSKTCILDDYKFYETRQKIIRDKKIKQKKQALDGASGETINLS", "experiment": "pull-down"}, "GST-ECT1 [2]": {"molecular_target": "T2, GST-ECT1 (Arabidopsis thaliana (Col-0), UniProt Q3MK94 1-428)", "T2 sequence": "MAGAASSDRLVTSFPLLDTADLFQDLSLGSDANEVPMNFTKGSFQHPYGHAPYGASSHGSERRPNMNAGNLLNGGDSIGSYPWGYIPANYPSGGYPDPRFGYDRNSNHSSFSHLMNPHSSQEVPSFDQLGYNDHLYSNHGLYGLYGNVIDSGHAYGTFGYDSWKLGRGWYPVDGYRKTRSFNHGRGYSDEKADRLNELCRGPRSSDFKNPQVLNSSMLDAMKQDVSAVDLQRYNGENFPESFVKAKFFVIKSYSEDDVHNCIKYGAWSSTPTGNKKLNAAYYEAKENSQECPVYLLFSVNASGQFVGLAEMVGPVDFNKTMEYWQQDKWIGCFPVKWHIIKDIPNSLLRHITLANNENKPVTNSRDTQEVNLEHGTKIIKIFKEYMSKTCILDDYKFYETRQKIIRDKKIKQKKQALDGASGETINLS", "experiment": "EMSA"}},
  "data": [
    {"binder": "B1", "values": [
      {"measurement": "binding result", "setting": "GST-ECT1 [1]", "value": "binds"}
    ]},
    {"binder": "B2", "values": [
      {"measurement": "binding result", "setting": "GST-ECT1 [2]", "value": "binds"}
    ]},
    {"binder": "B3", "values": [
      {"measurement": "binding result", "setting": "GST-ECT1 [2]", "value": "no binding"}
    ]}
  ]
}
